For two molecules, response results are on record in PMC2816707.

The experiment has as its target humanized EBV321. Briefly: ELISA. Conditions: chain shown with the change; point at the highest antibody concentration, about 13.3 nM (read from x axis); VEGF captured on ELISA plate; parent: est. 0.66; read off a plot. (ELISA stands for enzyme-linked immunosorbent assay.)

B1: rabbit IgG Fc-hVEGF (human VEGF165) fusion protein, wild type, P15692-4 G88A (protein)
chain: APMAEGGGQNHHEVVKFMDVYQRSYCHPIETLVDIFQEYPDEIEYIFKPSCVPLMRCGGCCNDEGLECVPTEESNITMQIMRIKPHQAQHIGEMSFLQHNKCECRPKKDRARQENPCGPCSERRKHLFVQDPQTCKCSCKNTDSRCKARQLELNERTCRCDKPRR
In the case of B1, the response was 0.73 OD (405nm).

B2: rabbit IgG Fc-hVEGF (human VEGF165) fusion protein, wild type, P15692-4 I46A (protein)
chain: APMAEGGGQNHHEVVKFMDVYQRSYCHPIETLVDIFQEYPDEIEYAFKPSCVPLMRCGGCCNDEGLECVPTEESNITMQIMRIKPHQGQHIGEMSFLQHNKCECRPKKDRARQENPCGPCSERRKHLFVQDPQTCKCSCKNTDSRCKARQLELNERTCRCDKPRR
Regarding B2, the response is 0.7 OD (405nm).
